Results from patent publication US20180264110A1 (STSCIENCES, published 2018).

T1: BTLA triple mutant (3NQ) (human, UniProt Q7Z6A9 31-289, limits assumed)
T1 construct: N to Q read from the label
T1 chain: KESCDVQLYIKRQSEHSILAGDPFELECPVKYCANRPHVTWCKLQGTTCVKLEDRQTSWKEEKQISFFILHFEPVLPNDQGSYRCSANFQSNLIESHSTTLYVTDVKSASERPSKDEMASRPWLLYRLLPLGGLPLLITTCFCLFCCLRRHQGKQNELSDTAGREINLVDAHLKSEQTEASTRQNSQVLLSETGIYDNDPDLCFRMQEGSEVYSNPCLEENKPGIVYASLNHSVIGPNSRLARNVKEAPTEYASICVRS


Tests used:
BTLA triple mutant (3NQ) = molecular target: T1, BTLA triple mutant (3NQ); assay: Western blot
Experimental: (§1) Immunoblot analysis was performed as described previously (Lim et al., 2008, Gastroenterology, 135:21 28-40; and Lee et al., 2007, Cell, 130:440-455). Image acquisition and quantitation of band intensity were performed using a Chemdoc Imager (BioRad, Hercules, Calif., US). The secondary antibodies were anti-mouse or -rabbit Alexa Fluor 488 or 594, and nuclei were stained with 4′,6-diamidino-2-phenylindole (DAPI) (Life Technologies, Carlsbad, Calif., US).
(§2) In the Western blot assays, anti-BTLA mAbs were tested for their ability to recognize fully glycosylated wild-type BTLA and to recognize certain BTLA mutants lacking two (N75/2NQ, N94/2NQ, N116/2NQ) or all three (3NQ) of BTLA's N-glycosylation sites. […] Generally, the band intensities shown in the Western blots of FIG. 2 indicate the specific glycosylation motif recognized by each of the tested antibodies and the binding strength of the tested antibodies to the recognized glycosylation motifs.

N75/2NQ [1] = molecular target: T2, N75/2NQ (human, UniProt Q7Z6A9); assay: Western blot of BTLA WT and glycosylation-site mutants probed with STC626 [continued]
T2 construct: double mutant, single glycosylation site N75; One member of the group m43; also called BTLA double mutant that retains only the N75 glycosylation site
Experimental: as §1, §2

N75/2NQ [2] = molecular target: T2, N75/2NQ; assay: Western blot of BTLA WT and glycosylation-site mutants probed with STC613 [continued]
Experimental: as §1, §2

Row | Binder | binding result (BTLA triple mutant (3NQ)) | binding result (N75/2NQ [1]) | binding result (N75/2NQ [2])
1 | STC626 (antibody, V domains shown) VH: QIQLVQSGPELKKPGETVKISCKASGYTFTNYGMNWVKQAPGKGLKWMGWINTNTGEPTYAEEFKGRIAFSLESSASTAYLQINNLKNEDTATYFCAREGVRRGGYFFDYWGQGTTLTVSS VL: DIQMTQSPASLSVSVGETVTITCRASENIYSNLAWYQQKQGKSPQLLVYAATNLADGVPSRFSGSGSGTQYSLKINSLQSEDFGSYHCQHFWGFPFTFGAGTKLEIKR | no binding | binds | –
2 | STC613 (antibody, V domains shown, also called STM613) VH: EVQLQQSGAELVRPGASVKLSCTASGFNIRDDYVHWLKQRPDQGLEWIGRIDPANGKTKYDPKFQDKATITADTSSNTAYLQLSSLTSEDTAVYFCVREGGSNYDYAMDYWGQGTSVTVSS VL: not shown | no binding | – | binds
